The text below walks through data of the DeepSol protein solubility set.

The series can be described thus: soluble on expression in E. coli; label from the status in PepcDB or PDB records.
Take “MGSDKIHHHHHHAAEKTVVNISKVDGMPWFNRMGEGVVQAGKEFNLNASQVGPSSTDAPQQVKIIEDLIARKVDAITIVPNDANVLEPVFKKARDAGIVVLTNESPGQPSANWDVEIIDNEKFAAEYVEHMAKRMGGKGGYVIYVGSLTVPQHNLWADLLVKYQKEHYPDMHEVTRRMPVAESVDDSRRTTLDLMKTYPDLKAVVSFGSNGPIGAGRAVKEKRAKNKVAVYGMMIPSQAASLIKSGDITEGITYDPATAGYALAAVASTLLNGKTIEPGFELKELGKAEVDSDKHIIRFHKVLLVNKDNIDSLY”: the “soluble on expression in E. coli” value is listed as “not soluble”.

Consider “MKKYSFPVTYENVRFPPNGQLKLPVMPAEPFYDAEKGEKKYKSTKRMIEARGVEEVHTELIHEQYGLAAVSGGFIDSDDFKFIQDRINKNLIDNQFSVWRVDAPWLPRTKKAQGTRLGGGKGSIQKYVTPVRANRIILEVGGHITEIEAKAFLLYLCERFSFPVEFVSETMLAERRKKAEEERAMNKNGFNWGKVIKYNMQNCNSWLSSYDVAWKGKYR”, for which the “soluble on expression in E. coli” value was “not soluble”.

With “MGSDKIHHHHHHMQVEGLSINLATIREQCGFAEAVDICLKHGITAIAPWRDQVAAIGLGEAGRIVRANGLKLTGLCRGGFFPAPDASGREKAIDDNRRAVDEAAELGADCLVLVAGGLPGGSKNIDAARRMVVEGIAAVLPHARAAGVPLAIEPLHPMYAADRACVNTLGQALDICETLGPGVGVAIDVYHVWWDPDLANQIARAGKMKAILAHHICDWLVPTKDMLTDRGMMGDGVIDLKGIRRRIEAAGFHGAQEVEIFSADNWWKRPADEVIATCVERYRNCC”, the “soluble on expression in E. coli” value is “not soluble”.

Take “MGSDKIHHHHHHAQPTDPSTTDSELTMLVGTYTSGNSKGIYTFRFNEETGESLPLSDAEVANPSYLIPSADGKFVYSVNEFSKDQAAVSAFAFDKEKGTLHLLNTQKTMGADPCYLTTNGKNIVTANYSGGSITVFPIGQDGALLPASDVIEFKGSGPDKERQTMPHLHCVRITPDGKYLLADDLGTDQIHKFNINPNANADNKEKFLTKGTPEAFKVAPGSGPRHLIFNSDGKFAYLINEIGGTVIAFRYADGMLDEIQTVAADTVNAQGSGDIHLSPDGKYLYASNRLKADGVAIFKVDETNGTLTKVGYQLTGIHPRNFIITPNGKYLLVACRDTNVIQIFERDQATGLLTDIKKDIKVDKPVCLKFVD”: the “soluble on expression in E. coli” value was “not soluble”.

Take “MGSDKIHHHHHHMLDRIIGTASANNWLFFCLFNNKFSGDIDSQRLLNMFRSVIAALLACLSYSAHAVVILQYHHVSEDTPKVTSVIPAQFREQMSYLRENGFKVKPLTHVVEAIKQGRELADKTVAITFDDGYQNIADTAHPILKEFGYPYTIFISIDPIERKHKNVMSWATLKRLSDEGVTLANHSWGHEHLIRRLHGEDEQTWLTRITENLLATEAEIEAKTGQSVKMLAYPYGEYNTAIETLVQKLGFVGFGQQSGAAGGYSSLTALPRFPVAGAYADLTSLKAKLYSLNMPVLALTPRNTQLPLGQWRPEMQVTLDMADIVASQVMCFVQGQGAMKPSWESEDTFSIQAVTDLPPGRSRYNCTAPSKASGRYYWFSQAWVRPKNDGTWVKE”: the “soluble on expression in E. coli” value is on record as “not soluble”.

As to “AASWSHPQFEKGAETAVPNSGGGELFATHCAGCHPQGGNTVHPEKTLARARREANGIRTVRDVAAYIRNPGPGMPAFGEAMIPPADALKIGEYVVASFP”, the “soluble on expression in E. coli” value was “soluble”.

For the sequence “VGVAVDRDELLGANAPPQGGSFRFYLDGERWEWSDSVARMHGYQPGEVIPTNEILLSHKHPDDQSQVAALFDKMIHAGEPFSSKHRIIDTDRRIHHVIVVGDRMLDENGQVIGTSGYYIDVTETLETDLREFNEALTEAVAGLEKSRAVIEQAKGALMLVYGISSERAFGILTWRSQETNIKLHTLAERFVGALAAEATLPASFRARFDHLLLTAHEYPDEQADHPA”, the “soluble on expression in E. coli” value was “not soluble”.

For “MFELDLRSRQPIYEQLIDKMKEMIVRELWQPHDQLPSVRTMAKQLMINPNTIQKAYRELERDGWIYSIPGKGSFVAPRSKEPNIEAIAAVREQFVRLVKEARFLGVTNEQLWQWIREGEERGGES”, the “soluble on expression in E. coli” value is reported as “not soluble”.

In the case of “GMDKQAILDNIHQTWQEEANAISRLPEVTSEEALVKTVEKIAECTGKIVVAGCGTSGVAAKKLVHSFNCIERPAVFLTPSDAVHGTLGVLQKEDILILISKGGNTGELLNLIPACKTKGSTLIGVTENPDSVIAKEADIFFPVSVSKEPDPFNMLATASTMAVIASFDAVIVCLMTYMNYTKEQFSVIHPGGAVGNKLLNK”, the “soluble on expression in E. coli” value is “soluble”.

For the sequence “GPGSMDSSAGALPATAHSSSNGAASIENVFAGLAWVRDLTDASLAAERVHNAFMQVVFSFVPEYDQDDDDDSATHRFVTAAERQKEAERDRRLREEARRELENLRNEPLSDAGDSGQRSDDEEDQRSEEANLADFETNEFMHWIEAGASDRFAAPRHEIDEKGLRDDPRVQVGADGAWQDYGVRSECNMSGATQGGARGAASAPRW”, the “soluble on expression in E. coli” value was “soluble”.

Regarding “MSLAQEDLLAKGEYLTRAANCVACHTVPGGQPFAGGVEFKLPFGSLFSPNITPDPQTGIGAWTDDEFVSALQTGIGRDGKHYYPAFPYTSYSKMSRDDILAIKGYLDSLQPVEQAPRENHIGFPFNQRWGMVFWNLLFLNDEPFQADSQRSAEWNRGKYLVEGPGHCGECHSPRNLFQAVSSERSLAGNLIQGWNAYNISADPVHGIGAWPTDVLAGYLKDGAAPGLGLSSGPMAEVVENSLRHLTDADRQAIAVFLKDSPPRSEGVPRPQQVTLAEPGSGSALGNKLFAEACASCHRWDGTGNQSQTAMLLGLKTVNDPAASNLLGILLSGHGAADAPVNRRMPSFGNIYTDQELAALSSFMLQRFGESGAQVSVPAVAKRRTESLHEGHHHHHH”, the “soluble on expression in E. coli” value is given as “not soluble”.

Take “MSLAVKILSVDDELDLEVLLTQYFRRQIRKGEYEFAFAHNGLEALQKLLETPDFDIILSDINMPEMDGLTLLAKVNELKNPAMKCIMVSAYGDMDNIRSAMNKGAFDFATKPIDLDDLSRTIEKAIEQVRYIRESQQEHNQLESIKNDLAIAGEIQQTILPRSFPPFPELTEVVNIYASMTPAKDVGGDFYDFFQIDDERIGLVIADVSGKGVPASLFMAVSRTLLRATALRGVSSAECLTYANKLLCKESLDSMFVTVFYGIYHYKTGMMDYTNAGHNPPYLLRGGRTVECLPVASNFVVGVFDDIEFESNTLTFGIGDTLLLYTDGVTEAFNDKREQFSESNLQDILASMHESSSAKEVVTSVLQSVKTFSGDYPQSDDITLLSLQRIKEGHHHHHH”: the “soluble on expression in E. coli” value was “soluble”.

For “RPVWYGEPVDIQPEHRDMMLVVDLSGSMAEEDMKTSNGDFVDRLTAVKQVVSDFIDQRKGDRLGLVLFGDHAYLQTPLTFDRNTVREQLDRTVLNLVGQRTAIGEGLGLATKTFIESNAPQRTIILLSDGANTAGVLEPLEAAQLAKDNHAKIYTVGIGAGEMQVRGFFGKQTVNTARDLDEDTLTKIATMTGGQYFRARNADELAEIYQTIDALEP”, the “soluble on expression in E. coli” value is on record as “soluble”.

Take “MGSDKIHHHHHHMDVSIDSGKKKIIPFIQSGDYFFRRGVIAFRKNHLSRAVKLLERAVKLTEQEPVFHIQLAAVLSELGHYERSNDILESVVQNLDPGHSECHFFMANNYAYLGLFEKAEHCAIAYLSDQPDGEFAKDAHDLLDLLRFEKEEEGDEWENELTPTDQFLLEHEKACQLLEEGHLQEAIVLLEKLMDEEPSYWTAYNQYAQALFRLGNVEKAFEVCEHILEEDQGNLFALCNMALFYKKQGQQQQAESLIQALSAVHPMDRAHRFKVAQVLCAVGAYEQAYDRLKELEWTSISSDPEWHFCIGVAAYHLGQEEIALRYWKKAATLGVQQAADYYAMSIVDILQKEDVTYEGWHVKQKSRQNS”: the “soluble on expression in E. coli” value was “not soluble”.

“MSLQDVDFHIPFPSRRSPDFERARADHLSWPRALGLIGTDAAAERHSRGGYADLAARFYPSATGADLDLGVDLMSWFFLFDDLFDGPRGEDPQETRKLTDAVAAALDGPLPTSAPPIAHGFADVWRRTCQGMSPAWRARSARHWRNYFSGYVDEAVSRHLNTPYDSAGHYLAMRRQTIGVQPTVDLAERSCHCEVPQRVFDSAVLFAMLQIATDTNLILNDIASLEKEEARGELNNMVFILMREHGWTRGRSIAHMQDGVRTRLEQFLLLEACLPKVYDTFELTAQERESAEKYRMDGVRSVIRGSYDWHRSSGRYAADYAEGHHHHHH”: the “soluble on expression in E. coli” value is recorded as “soluble”.

Turning to “QRDIPVQFIVAGVKRSDLRNLVEERIRKEGTKTREIRYREIGHYNGSVENIHLSVDKYEAAGGTEYFISYVTDDDHIVGFVRLRQPSEMAHRQEMLGSAIVRELKVFGQEVPVGRRDLKNWQHHGYGMRLMEEAERIARDDLGLDRILVISGIGVRQYFRKIGYEDLGPYVAKSLK”, the “soluble on expression in E. coli” value is on record as “not soluble”.
